This note sets out measurements from patent publication US20230295293A1, “BINDING MOLECULES AGAINST FRa” (AstraZeneca AB, priority 2022, published 2023).

Assay [1] addresses Human FRα ECD-Avi-His (human). The experiment in a line: HTRF antigen binding assay; hybridoma supernatant at 25%, 1 nM biotinylated antigen. (In general: TR-FRET usually uses a lanthanide donor and a delayed reading to cut background.)
For assay [2], the target named is Cyno FRα ECD-Avi-His (cynomolgus monkey). The description is as above.
Sequence of Cyno FRα ECD-Avi-His (cynomolgus monkey) (chain, as listed by the source limits assumed): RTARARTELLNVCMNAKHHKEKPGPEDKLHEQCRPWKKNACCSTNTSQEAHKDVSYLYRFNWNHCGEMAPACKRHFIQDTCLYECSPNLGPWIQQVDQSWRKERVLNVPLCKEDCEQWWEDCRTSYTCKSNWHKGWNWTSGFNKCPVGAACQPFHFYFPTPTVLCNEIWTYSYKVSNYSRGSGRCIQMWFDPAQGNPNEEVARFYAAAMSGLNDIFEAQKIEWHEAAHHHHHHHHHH

Positions count from the first letter of the chain named.

Sequence of Human FRα ECD-Avi-His (human) (chain, as listed by the source limits assumed): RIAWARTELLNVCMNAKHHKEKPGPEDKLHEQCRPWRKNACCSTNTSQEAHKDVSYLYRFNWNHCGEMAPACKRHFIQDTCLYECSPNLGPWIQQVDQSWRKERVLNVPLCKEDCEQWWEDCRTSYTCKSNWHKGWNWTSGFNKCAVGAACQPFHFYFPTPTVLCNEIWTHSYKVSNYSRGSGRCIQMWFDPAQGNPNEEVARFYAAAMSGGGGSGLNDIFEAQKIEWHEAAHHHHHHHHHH

B1: AB1370035 (hybridoma IgG) (antibody, V domains shown)
VH: QVQLQQSGPGLVKPSQTLSLTCAISGDSVSSNSAAWNWIRQSPSRGLEWLGRTYYRSNWYNDYTLSVKSRITVNPDTSKNQFSLQLNSVTPEDTAVYYCVRGVGRFDSWGQGTLVTVSS
VL: DIQMTQSPSTLSASVGDRVIITCRASQSISSWLAWYQQKPGKAPKLLIYKASSLESGVPSRFSGSGSGTEFTLTITSLQPDDFASYYCQEYKTYSIFTFGPGTKVDIK
Consider B1, for which the % Delta F in assay [1] came to 225 % Delta F; in assay [2], 141 % Delta F.

B2: AB1370026 (hybridoma IgG) (antibody, V domains shown)
VH: EVQLVESGGGLVKPGGSLRLSCAASGFTFSSYAMSWVRQAPGKGLEWVSSISSGRSYIYYADSVKGRFTISRDNAKNSLYLKMNSLRDEDTAVYYCAREMQQLALDYWGQGTLVTVSS
VL: DIQMTQSPSSLSASVGDRVTITCRASQGISNFLAWFQQAPGKAPKSLIYAASSLQSGVPSKFSGSGSGTDFTLTISSLQPEDFATYYCQQYNSYPFTFGQGTKLEIK
For the molecule B2, the % Delta F is 271 % Delta F in assay [1] and 214 % Delta F in assay [2].

B3: AB1370083 (hybridoma IgG) (antibody, V domains shown)
VH: EVQLVESGGGLVKPGGSLRLSCAASGFTFSSYNMNWVRQAPGKGLEWVSSISSGSSYIYYADSMKGRFTISRDNAKNSLFLQMNSLRAEDTAVYYCARGMTTLTFDYWGQGTLVTVSS
VL: B2 VL with N31T, A39K, G68E, N92I, F96L, Q100G, L104V
B3: the values for the % Delta F in assay [1] and in assay [2] were 140 % Delta F and 85.2 % Delta F, respectively.

B4: AB1370095 (hybridoma IgG) (antibody, V domains shown)
VH: B3 VH with N33S, G54R, I58V, M64V, F80Y
VL: B2 VL with N31S, A39K, F96L, Q100G, L104V
Take B4: the % Delta F amounted to 126 % Delta F in assay [1] and 85.3 % Delta F in assay [2].
